In article PMC3078924:

Target: recombinant ATP synthase subunit β of A. actinomycetemcomitans, as purified (Aggregatibacter actinomycetemcomitans ATCC 700685 (HK1651))
Experiment: native gel or EMSA; recombinant ATP synthase subunit β on native PAGE, silver stained; three prominent forms

“recombinant ATP synthase subunit β of A. actinomycetemcomitans, as purified (enzyme)” was tested, and the stoichiometry N was 3.
